According to PMC10425836, “Cryo‐EM structure of antibacterial efflux transporter QacA from Staphylococcus aureus reveals a novel extracellular loop with allosteric role” (The EMBO Journal, 2023):

Columns and labels:
QacAWT tagged with GFP = biological target: T1, QacAWT tagged with GFP (Staphylococcus aureus, UniProt P0A0J9); assay: immunostaining of cells or tissue; NHS-Rhodamine labelled ICabs (0.03 mg/ml) added to E. coli spheroplasts expressing GFP-tagged QacA, room temperature 30 min, washed, confocal microscopy; settings: one partner purified
T1 construct: QacA wild type, 14 transmembrane helix MFS (DHA2) antibacterial efflux antiporter of Staphylococcus aureus; codon-optimized synthetic gene in pBAD-His8; the methods of the spheroplast imaging name only QacA_(D411N)-GFP; also called QacA-GFP; source: on E. coli spheroplasts; not shown: GFP, C-terminal, kept

the identified ICabs = assay: flow cytometry on cells; yeast cells displaying the ICab incubated with different concentrations of purified QacA_(D411N)-GFP; population shift-based titration; one site-specific binding fit; apparent Kd
[1] = biological target: ICab A4 displayed on the yeast cell surface; assay: as above
[2] = biological target: ICab B7 displayed on the yeast cell surface; assay: as above
five unique clones = assay: flow cytometry on cells; yeast cells displaying individual ICab clones with QacA_(D411N)-GFP; percent population shift

B1: ICab B7, purified (VHH)
VHH: QVQLQESGGGSVQAGGSLRLSCAASGYTNSRKCMGWFRQIPGKEREGVAAIYGFGRGLILYADSVKGRFTISQDNAKNTVYLQMNSLKPEDTAMYYCAADSPGSCLSRSGYNYWGQGTQVTVSS
notes: single-domain Indian camelid antibody B7 from a camel immunised with QacA; source: E. coli SHuffle T7, purified (Ni-NTA, SEC)
binding result (QacAWT tagged with GFP): binds

B2: QacA_(D411N)-GFP (natural protein)
chain: MISFFTKTTDMMTSKKRWTALVVLAVSLFVVTMDMTILIMALPELVRELEPSGTQQLWIVDIYSLVLAGFIIPLSAFADKWGRKKALLTGFALFGLVSLAIFFAESAEFVIAIRFLLGIAGALIMPTTLSMIRVIFENPKERATALAVWSIASSIGAVFGPIIGGALLEQFSWHSAFLINVPFAIIAVVAGLFLLPESKLSKEKSHSWDIPSTILSIAGMIGLVWSIKEFSKEGLADIIPWVVIVLAITMIVIFVKRNLSSSDPMLDVRLFKKRSFSAGTIAAFMTMFAMASVLLLASQWLQVVEELSPFKAGLYLLPMAIGDMVFAPIAPGLAARFGPKIVLPSGIGIAAIGMFIMYFFGHPLSYSTMALALILVGAGMASLAVASALIMLETPTSKAGNAAAVEESMYNLGNVFGVAVLGSLSSMLYRVFLDISSFSSKGIVGDLAHVAEESVVGAVEVAKATGIKQLANEAVTSFNDAFVATALVGGIIMIIISIVVYLLIPKSLDITKQK
Kd (the identified ICabs): 59 nM | Kd [1]: 65 nM | Kd [2]: 100 nM | population shift (five unique clones): 65 to 97%

B3: ICab A4, purified (VHH)
VHH: QVQLQESGGGSVQTGGSLRLSCAASGYRYSDNCVGWFRQAPGREREAVATYNSGSSTWYADSVKGRFTISQDSAKSTVYLQMNNLKPEDTAMYYCAGRNRLGSYCYMTGDFAYWGQGTQVTVSS
notes: single-domain Indian camelid antibody A4 from a camel immunised with QacA; source: E. coli SHuffle T7, purified (Ni-NTA, SEC)
binding result (QacAWT tagged with GFP): binds
